From PMC6468809, “Structural Analysis of the 42 kDa Parvulin of Trypanosoma brucei” (Biomolecules, 2019) come the findings set out here.

*1 amine or outer side, *2 acyl side, *3 side chain or, on linkers, in order; H or OH if unused. [ ]: non-standard residue; d: D form. pT = C[C@@H](OP(=O)(O)O)[C@H](N)C(=O)O; Suc = O=C(CCC(=O)[*:2])[*:1]

For this assay, the target named is TbPar42 N-terminal extended FHA domain (1-177) (T. brucei). Put plainly: NMR titration; 440 uM 15N-labelled NterFHA or PPIase in 50 mM potassium phosphate, pH 6.26, 90%/10% H2O/D2O; peptide added stepwise to 13 mM; 1H-15N-HSQC or SOFAST spectra, 700 MHz, 27 °C.

B1: Suc-Ala-pThr-Pro-Ala-NH2 (peptide)
peptide: Suc-A[pT]PA-NH2
SMILES: C[C@H](NC(=O)[C@@H]1CCCN1C(=O)[C@@H](NC(=O)[C@H](C)NC(=O)CCC(=O)O)[C@@H](C)OP(=O)(O)O)C(N)=O
What is called Kd is a measure of binding affinity in units of concentration. High values mean weaker binding, low ones tighter binding. With B1, the Kd came to 4 mM.
